Data: patent publication US10772928B2, “Modulation and detection of a neuronal alternative splicing regulatory network for treatment and diagnosis of neurological disorders” (The Governing Council of the University of Toronto, priority 2014, dated 2020)

Molecular target: T1, nSR100 (Mus musculus, UniProt Q8BKA3)
T1 construct: host or cells: mouse N2A cells
T1 sequence (Q8BKA3 1-608): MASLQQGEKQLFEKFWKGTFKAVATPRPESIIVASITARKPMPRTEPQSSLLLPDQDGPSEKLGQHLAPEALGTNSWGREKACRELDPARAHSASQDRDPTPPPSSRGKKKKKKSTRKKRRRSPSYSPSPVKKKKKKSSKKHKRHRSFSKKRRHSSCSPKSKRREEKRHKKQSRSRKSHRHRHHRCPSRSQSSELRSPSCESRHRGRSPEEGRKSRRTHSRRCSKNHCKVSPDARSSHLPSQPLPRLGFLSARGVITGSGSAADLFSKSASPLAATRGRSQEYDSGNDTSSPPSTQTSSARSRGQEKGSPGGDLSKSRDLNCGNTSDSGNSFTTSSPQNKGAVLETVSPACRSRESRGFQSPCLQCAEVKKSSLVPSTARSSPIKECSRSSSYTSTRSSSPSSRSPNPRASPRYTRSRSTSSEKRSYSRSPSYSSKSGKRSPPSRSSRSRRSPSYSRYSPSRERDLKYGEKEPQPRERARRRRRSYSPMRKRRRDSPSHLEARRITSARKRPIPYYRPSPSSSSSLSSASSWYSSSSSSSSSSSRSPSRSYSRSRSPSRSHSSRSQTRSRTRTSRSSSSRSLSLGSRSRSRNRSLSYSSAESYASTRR
Assay: AP-MS nSR100 interaction partners from mouse N2A cells (Table 5)
Type: binding
Conditions: for AvgP (average of the SAINT scores) / MaxP (maximal SAINT score): bait Srrm4; for FoldChange between the prey Avg spectra of the bait and control purifications: bait Srrm4, 0.1 added to prevent division by 0; for AvgSpec (average number of spectra per replicate): bait Srrm4, 2 replicates; for Spectra (number of spectra for the prey in the purification of the bait): AP-MS; for SpecSum: bait Srrm4, sum of spectra over 2 replicates

[1] = bait Srrm4, biological replicate 1 (first number of the cell)
[2] = bait Srrm4, biological replicate 2 (second number of the cell)

Source text: By applying affinity purification coupled to mass-spectrometry (AP-MS), several interaction nSR100 partner proteins were detected that provide insight into mechanisms of post-translational regulation of nSR100 levels.

Molecule	AvgP (average of the SAINT scores)	MaxP (maximal SAINT score)	FoldChange between the prey Avg spectra of the bait and control purifications	AvgSpec (average number of spectra per replicate)	Spectra (number of spectra for the prey in the purification of the bait) [1]	Spectra (number of spectra for the prey in the purification of the bait) [2]	SpecSum
Sf3a3 (protein, UniProt Q9D554 1-501, looked up) Splicing factor 3A subunit 3: METILEQQRRYHEEKERLMDVMAKEMLTKKSTLRDQINSDHRTRAMQDRYMEVSGNLRDLYDDKDGLRKEELNAISGPNEFAEFYNRLKQIKEFHRKHPNEICVPMSVEFEELLKARENPSEEAQNLVEFTDEEGYGRYLDLHDCYLKYINLKASEKLDYITYLSIFDQLFDIPKERKNAEYKRYLEMLLEYLQDYTDRVKPLQDQNELFGKIQTDFEKKWDNGTFPGWPKETSSALTHAGAHLDLSAFSSWEELASLGLDRLKSALLALGLKCGGTLEERAQRLFSTKGKSLESLDTSLFAKNPKSKGTKRDTERNKDIAFLEAQIYEYVEILGEQRQLTHENVQRKQARTGEEREEEEEEQISESESEDEENEIIYNPKNLPLGWDGKPIPYWLYKLHGLNINYNCEICGNYTYRGPKAFQRHFAEWRHAHGMRCLGIPNTAHFANVTQIEDAVSLWAKLKLQKASERWQPDTEEEYEDSSGNVVNKKTYEDLKRQGLL	0.99	0.99	10.5	10.5	11	10	21
Dhx8 (protein, UniProt A2A4P0 1-1244, looked up) ATP-dependent RNA helicase …: MAVAVAAAGVLMGSEPGPAEELAKLEYLSLVSKVCTELDNHLGINDKDLAEFVISLAEKNTTFDTFKASLVKNGAEFTDSLISNLLRLIQTMRPPAKPSTSKDPVVKPKTEKEKLRELFPVLCQPDNPSARTMLDEEDVKVAVDVLKELEALMPSAAGQEKQRDPEHRDRTKKKKRSRSRDRDRDRDRDRDRDRDRDRDRDKDRERDRDRERDRERDRERDHKRRHRSRSRSHSRTRERTKGKSRYRSRSRSQSPFKDRKDREKYGERNLDRWRDKHVDRPPPEEPAIGDIYNGKVTSIMQFGCFVQLEGLRKRWEGLVHISELRREGRVANVADVVSKGQRVKVKVLSFTGTKTSLSMKDVDQETGEDLNPNRRRNLVGETNEETSMRNPDRPTHLSLVSAPEVEDDSLERKRLTRISDPEKWEIKQMIAANVLSKEEFPDFDEETGILPKVDDEEDEDLEIELVEEEPPFLRGHTKQSMDMSPIKIVKNPDGSLSQAAMMQSALAKERRELKQAQREAEMDSIPMGLNKHWVDPLPDAEGRQIAANMRGIGMMPNDIPEWKKHAFGGNKASYGKKTQMSILEQRESLPIYKLKEQLVQAVHDNQILIVIGETGSGKTTQITQYLAEAGYTSRGKIGCTQPRRVAAMSVAKRVSEEFGCCLGQEVGYTIRFEDCTSPETVIKYMTDGMLLRECLIDPDLTQYAIIMLDEAHERTIHTDVLFGLLKKTVQKRQDMKLIVTSATLDAVKFSQYFYEAPIFTIPGRTYPVEILYTKEPETDYLDASLITVMQIHLTEPPGDILVFLTGQEEIDTACEILYERMKSLGPDVPELIILPVYSALPSEMQTRIFDPAPPGSRKVVIATNIAETSLTIDGIYYVVDPGFVKQKVYNSKTGIDQLVVTPISQAQAKQRAGRAGRTGPGKCYRLYTERAYRDEMLTTNVPEIQRTNLASTVLSLKAMGINDLLSFDFMDAPPMETLITAMEQLYTLGALDDEGLLTRLGRRMAEFPLEPMLCKMLIMSVHLGCSEEMLTIVSMLSVQNVFYRPKDKQALADQKKAKFHQTEGDHLTLLAVYNSWKNNKFSNPWCYENFIQARSLRRAQDIRKQMLGIMDRHKLDVVSCGKSTVRVQKAICSGFFRNAAKKDPQEGYRTLIDQQVVYIHPSSALFNRQPEWVVYHELVLTTKEYMREVTTIDPRWLVEFAPAFFKVSDPTKLSKQKKQQRLEPLYNRYEEPNAWRISRAFRRR	0.99	1	7.33	11	8	14	22
Prpf38b (protein, UniProt Q80SY5 2-542, looked up) Pre-mRNA-splicing factor 38B: ANNSPALTGNSQPQHQAAAAVTQQQQQCGGGGGATKPAVSGKQGNVLPLWGNEKTMNLNPMILTNILSSPYFKVQLYELKTYHEVVDEIYFKVTHVEPWEKGSRKTAGQTGMCGGVRGVGTGGIVSTAFCLLYKLFTLKLTRKQVMGLITHTDSPYIRALGFMYIRYTQPPTDLWDWFESFLDDEEDLDVKAGGGCVMTIGEMLRSFLTKLEWFSTLFPRIPVPVQKNIDQQIKTRPRKIKKDGKEGIEEIDRHVERRRSRSPRRSLSPRRSPRRSRSRSHHREGHGSSSFDRELEREKERQRLEREAKEREKERRRSRSIDRGLDRRRSRSRERHRSRSRSRDRKGDRRDRDREREKENERGRRRDRDYDKERGSDRERDRERSRERSKEQRSRGDGEEKKHKEDKEDRRHRDDKKESKKKHSRSRSRERKHRSRSRNAGKRSRSRSKDKSSRHKNESKEKANKRSRSGSQGRTGSVEKRKREHSPSREKSRKRSRSQDRSHKREHNDSKDQSDRQDHQSSQSGEPESQEKEHKSKDETV	1	1	60	6	6|6	6|6	12
Eif4a3 (protein, UniProt Q91VC3 1-411, looked up) Eukaryotic initiation factor …: MAANATMATSGSARKRLLKEEDMTKVEFETSEEVDVTPTFDTMGLREDLLRGIYAYGFEKPSAIQQRAIKQIIKGRDVIAQSQSGTGKTATFSVSVLQCLDIQVRETQALILAPTRELAVQIQKGLLALGDYMNVQCHACIGGTNVGEDIRKLDYGQHVVAGTPGRVFDMIRRRSLRTRAIKMLVLDEADEMLNKGFKEQIYDVYRYLPPATQVVLISATLPHEILEMTNKFMTDPIRILVKRDELTLEGIKQFFVAVEREEWKFDTLCDLYDTLTITQAVIFCNTKRKVDWLTEKMREANFTVSSMHGDMPQKERESIMKEFRSGASRVLISTDVWARGLDVPQVSLIINYDLPNNRELYIHRIGRSGRYGRKGVAINFVKNDDIRILRDIEQYYSTQIDEMPMNVADLI	0.99	1	3.82	21	18	24	42
Ccnb2 (protein, UniProt P30276 1-398, looked up) G2/mitotic-specific cyclin-B2: MALLRRPTVSSDLKNIDTEVIPKAKSHVTIRRAVLEEIGNKVRNRTTQVAKKPQNTKVPALPTKVTNVNKQPKPTASVKPVQMEALAPKDRPPAPEDVSMKEESLCQAFSDALLCKIEDIDNEDRENPQLCSDYVKDIYQYLRQLEVLQSINPHFLDGRDINGRMRAILVDWLVQVHSKFRLLQETLYMCIAIMDRFLQAQLVCRKKLQLVGITALLLASKYEEMFSPNIEDFVYITDNAYTSSQIREMETLILKELKFELGRPLPLHFLRRASKAGEVDVEQHTLAKYLMELTLVDYDMVHYHPSQVAAAASCLSQKVLGQGKWNLKQQYYTGYMESEVLEVMQHMAKNVVKVNDNRTKFIAVKNKYASSRLLKISTIPQLNSKIIKDLASPLLGSP	1	1	60	6	4	8	12
